Non-standard residues stand in square brackets, D forms with d. Residues, ends and D or L forms follow the SMILES beside them. dPhe(4-Cl) = N[C@H](Cc1ccc(Cl)cc1)C(=O)O; d2Nal = N[C@H](Cc1ccc2ccccc2c1)C(=O)O; dCit = NC(=O)NCCC[C@@H](N)C(=O)O; d3Pal = N[C@H](Cc1cccnc1)C(=O)O

Here are results for four molecules from US20260183363A1, “INHIBITION OF LUTEINIZING HORMONE (LH) ACTION AS TREATMENT OF PERIMENOPAUSAL AND POSTMENOPAUSAL SYMPTOMS AND COMPLICATIONS” (RIGSHOSPITALET, priority 2022, published 2026).

For assay [1], the system named is bilateral ovariectomized female C57BL/6JRj mice. Briefly: Menopausal mouse model: temperature and tissue weights. Format: in vivo. The note with it: for Body weight compared with vehicle: after 10 days treatment. The procedure: Bilateral ovariectomized female C57BL/6JRj mice, 8 weeks of age, were included in the study and administered with IgG2b (control) or 1 of 3 test articles (LH-β ab, LHCGR ab or GnRH antagonist) either at study day 1, or once a day for 9 days. The control/vehicle treatment was a non-specific antibody (IgG2b). The route of administration was through intraperitoneal (i.p.) injection. The study had four groups in total (Table 3); group 1 (female, n=6) was treated i.p. with IgG2b (control) on study day 1 and day 5, group 2 (female, n=3) was treated i.p. with LH-β ab at study day 1, group 3 (female, n=3) was treated i.p. with LHCGR ab at study day 1, group 4 (female, n=3) was treated i.p. with GnRH antagonist once a day (q.d.) for 9 days. Blood for preparation of serum was collected prior to dosing on study day 1 and at termination on study day 10. Core temperature and skin temperature were determined in female mice pre-dose on study day 1, at study day 5 and at termination on study day 10.
Seventeen (17) ovariectomized C57BL/6JRj female mice 8 weeks of age were supplied by Janvier Labs France. The ovaries from the female mice were surgically removed by the supplier. The mice were caged in European IVC cages type IIL. Temperature was 20° C. to 24° C. and the light cycle 12-hour dark and 12-hour light (lights on 06.00). The diet was Altromin 1324, produced by Altromin, Im Seelenkamp 20, 32791 Lage, Germany.
Temperature measurements were done using rectal thermometer (thermometer BIO-TK8851 combined with rectal probe BIO-BRET-3, both from BIOSEB Lab instruments) for core temperature and infrared (153-IRB Infrared Thermometer, BIOSEB Lab instruments) for skin temperature. The core temperature was recorded rectally, and skin temperature was recorded at the tail and the head between the ears at the same time of the day (morning). Immediately after termination, tissues (fat and thyroid mass) were dissected, weighed, placed in Eppendorf tubes and snap frozen by emerging the tube in liquid nitrogen or placed in histology jar and fixed in 4% neutral buffered formalin.

For assay [2] the test system is unchanged. The assay can be described thus: Calcium excretion and kidney weight in menopause mouse model. The class given is in vivo. The conditions noted are these: for kidney weight compared with vehicle (IgG2b): female mice without ovaries; for kidney weight compared with vehicle (IgG2b) / calcium excretion: day 10; for calcium excretion: female mouse model. The procedure:
(§1) Bilateral ovariectomized female C57BL/6JRj mice, 8 weeks of age, were included in the study and administered with IgG2b (control) or 1 of 3 test articles (LH-β ab, LHCGR ab or GnRH antagonist) either at study day 1, study day 1 and 5 or once a day for 9 days. The route of administration was through intraperitoneal (i.p.) injection. The study included be 6 groups in total (Table 6); group 1 (female, n=6) was treated i.p. with IgG2b (control) on study day 1 and day 5, group 2 (female, n=3) was treated i.p. with LH-β ab at study day 1, group 3 (female, n=1) was treated i.p. with LH-β AB on study day 1 and day 5, Group 4 (female, n=3) was treated i.p. with LHCGR ab at study day 1, group 5 (female, n=1) was treated i.p. with LHCGR ab on study day 1 and day 5, group 6 (female, n=3) was treated i.p. with GnRH antagonist once a day (q.d.) for 9 days. Blood for preparation of serum was collected prior to dosing on study day 1 and at termination on study day 10. Urine and kidneys were collected on day 10.
Seventeen (17) bilateral ovariectomized C57BL/6JRj female mice 8 weeks of age, were supplied by Janvier Labs France. The ovaries from the female mice were surgically removed by the supplier (see also Table 6). Fourteen (14) C57BL/6JRj male mice were also stratified into the different groups except that no male mice were treated with GnRH antagonist, and the male mice were therefore only stratified into groups 1-5 (see also Table 7).

In a further assay the test system is human kidney tissue. The assay can be described thus: Ex vivo culture of human kidney tissue, qRT-PCR gene expression. The class given is cell-based. As for the experimental part:
Human kidney tissues from 5 adults (4 men, 1 […]) were cultured. All donors underwent partial nephrectomy due to suspected malignant kidney tumors and a pathologist removed tissues outside the malignant area. Kidney specimens were dissected in small pieces 1 mm^3 and cultured for either 3 or 24 hours in a hanging drop ex vivo model.
Gene expression profiling was done by qRT-PCR analyzing levels of calcium transporters SLC12A-1, SLC12A-2, TRPV5 as well as calcium-sensing receptor (CASR). The inventors also measured kidney expression of exon 2-4 and 11 of LHCGR using a primer-sequence previously validated by sequencing of the product from both serum and testis tissue. As calcium transporters are differentially expressed in the different parts of the nephron, all samples were standardized according to the expression of Uromodulin (UMOD), a protein located in the thick ascending limb of the loop of Henle and subsequently to MAP3K7 expressed in the distal convoluted tubules and in addition to being standardized to the housekeeping gene, RPS20. Ethical committee approval: H-17004362. All samples were analyzed with ANOVA with control/baseline as reference value and every p-value presented was adjusted for multiple comparisons with Dunnett's post hoc test.
(Quantitative PCR measures a nucleic acid by following its amplification.)

A further assay relates to C57BL/6JRj male mice. The assay can be described thus: Calcium excretion and kidney weight in normal male mice. Format: in vivo. As for the experimental part:
as §1
Seventeen (17) bilateral ovariectomized C57BL/6JRj female mice 8 weeks of age, were supplied by Janvier Labs France. The ovaries from the female mice were surgically removed by the supplier (see also Table 6). […]

As for `CC(=O)N[C@H](Cc1ccc2ccccc2c1)C(=O)N[C@H](Cc1ccc(Cl)cc1)C(=O)N[C@H](Cc1cccnc1)C(=O)N[C@@H](CO)C(=O)N[C@@H](Cc1ccc(O)cc1)C(=O)N[C@H](CCCNC(N)=O)C(=O)N[C@@H](CC(C)C)C(=O)N[C@@H](CCCNC(=N)N)C(=O)N1CCC[C@H]1C(=O)N[C@H](C)C(N)=O` [GnRH antagonist, Cetrorelix, reference compound] (Ac-[d2Nal][dPhe(4-Cl)][d3Pal]SY[dCit]LRP[dA]-NH2), the visceral fat mass result in assay [1] (10 days) is given as “suppressed”. For the same molecule, the “Body weight compared with vehicle” value in assay [1] is recorded as “lower”. For the same molecule, in assay [2], the “kidney weight compared with vehicle (IgG2b)” value is reported as “slightly lower” and the calcium excretion result is listed as “suppressed calcium excretion”.
For the molecule `C[C@]12CC[C@H]3[C@@H](CCC4=CC(=O)CC[C@@]43C)[C@@H]1CC[C@@H]2O` [testosterone, reference compound], the “expression of LHCGR exon 11” value in the assay on human kidney tissue (three hours ex vivo culture, 5 out of 5 below detection vs vehicle 3 out of 10) was “suppressed”.

B1: LH-β ab: Monoclonal mouse antibody (IgG2B; Kappa) targeting mouse LH beta; variable light chain SEQ ID NO: 5, heavy chain SEQ ID NO: 9 (antibody)
heavy: MEWRIFLFILSGTAGVHSQVQLQQSGPELVKPGTSLKLSCKASGYTFTDYVLTWVKQRTGQGLEWIGEIYPGSGSTSYNEKFRGKATLTADKSSNTAYMQLSSLTSEDSAVYFCAHLYYADYDFSYWGQGTLVTVSAAKTTPPSVYPLAPGCGDTTGSSVTLGCLVKGYFPESVTVTWNSGSLSSSVHTFPALLQSGLYTMSSSVTVPSSTWPSQTVTCSVAHPASSTTVDKKLE
light: MKLPVRLLVLMFWIPVSSSDVLMTQIPLSLVVSLGDQASISCRSSQNIVQSNGNTYLEWYLQKPGQSPKLLIYKVSNRFSGVPDRFSGSGSGTDFTLKISRVEAEDLGVYYCFQGSHVPLTFGAGTKLELKRADAAPTVSIFPPSSEQLTSGGASVVCFLNNFYPKDINVKWKIDGSERQNGVLNSWTDQDSKDSTYSMSST
As for B1, in assay [1] (10 days), the subcutaneous fat mass entry was “suppressed”, the thyroid mass result is recorded as “lowered” and the visceral fat mass result is on record as “suppressed”. The “Body weight compared with vehicle” value in assay [1] is listed as “lower”. The “increase of core temperature relative to baseline” value in assay [1] (day 5 and 10) is recorded as 8%. The “change in body weight versus vehicle” value in assay [1] (most pronounced in the first 5 days) is “effective in suppressing the effect of menopause (gonadectomy) on weight induction”. In assay [2], the “kidney weight compared with vehicle (IgG2b)” value was “slightly lower” and the calcium excretion result was “suppressed calcium excretion”. The calcium excretion suppressed in assay [2] (high dosage, female mice) is on record as 70%. For the same molecule, the calcium excretion result in the assay with C57BL/6JRj male mice (all concentrations) is on record as “reduced calcium excretion”. For the same molecule, the “kidney weight compared with vehicle (IgG2b)” value in the assay with C57BL/6JRj male mice (day 10) is “slightly lower”.

B2: PTH: parathyroid hormone, added to kidney tissue culture media at 0.01 pg/mL (protein, UniProt P01270 32-115, looked up)
Parathyroid hormone: SVSEIQLMHNLGKHLNSMERVEWLRKKLQDVHNFVALGAPLAPRDAGSQRPRKKEDNVLVESHEKSLGEADKADVNVLTKAKSQ
modifications: Parathyroid hormone
notes: parathyroid hormone, added to kidney tissue culture media at 0.01 pg/mL
Consider B2, for which, in the assay on human kidney tissue (after 24 hours), the TRPV5 expression entry is on record as “significantly increased”.
